Reference: patent US20260167693A1 (ANGELES THERAPEUTICS, published 2026)

T1: CD19-ECD-GGSG-NLuc-AcV5 (human)
T1 construct: also called CD19-GGSG-NLuc-AcV5; Flag-CD19-GGSG-NLuc-AcV5
T1 chain: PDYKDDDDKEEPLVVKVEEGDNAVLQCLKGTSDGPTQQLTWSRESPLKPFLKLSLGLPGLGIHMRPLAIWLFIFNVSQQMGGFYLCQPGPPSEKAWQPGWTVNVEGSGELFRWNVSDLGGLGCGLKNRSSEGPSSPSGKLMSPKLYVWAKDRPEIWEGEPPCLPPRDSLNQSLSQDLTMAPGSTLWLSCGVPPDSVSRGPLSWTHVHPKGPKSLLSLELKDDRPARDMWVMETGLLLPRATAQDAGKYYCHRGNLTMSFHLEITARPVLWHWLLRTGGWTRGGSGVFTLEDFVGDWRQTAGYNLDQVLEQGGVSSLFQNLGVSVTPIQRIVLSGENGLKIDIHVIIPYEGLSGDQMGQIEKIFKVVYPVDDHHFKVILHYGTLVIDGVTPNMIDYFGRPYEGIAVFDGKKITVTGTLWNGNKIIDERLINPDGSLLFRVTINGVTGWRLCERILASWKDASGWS


Molecular target: T1, CD19-ECD-GGSG-NLuc-AcV5
Experiment: NLuc binding assay, SIR on Jurkat-NFAT-GFP cells

Binder | CD19-GGSG-NLuc (RLU)
CD8SP-FMC63-vL-PG4SP-v2-[hTCRb-KACIAH]-F-P2A-SP-FMC63-vH-PG4SP-[hTCRa-CSDVP]-F-F2A-PAC (other, Polyprotein PRT 12433; also called 040617-A09) TCR beta: DIQMTQTTSSLSASLGDRVTISCRASQDISKYLNWYQQKPDGTVKLLIYHTSRLHSGVPSRFSGSGSGTDYSLTISNLEQEDIATYFCQQGNTLPYTFGGGTKLEITPGGGGSPEDLKNVFPPEVAVFEPSKAEIAHTQKATLVCLATGFYPDHVELSWWVNGKEVHSGVCTDPQPLKEQPALNDSRYCLSSRLRVSATFWQNPRNHFRCQVQFYGLSENDEWTQDRAKPVTQIVSAEAWGRADCGITSASYHQGVLSATILYEILLGKATLYAVLVSALVLMAMVKRKDSRG TCR alpha: EVKLQESGPGLVAPSQSLSVTCTVSGVSLPDYGVSWIRQPPRKGLEWLGVIWGSETTYYNSALKSRLTIIKDNSKSQVFLKMNSLQTDDTAIYYCAKHYYYGGSYAMDYWGQGTSVTVSSPGGGGSPIQNPDPAVYQLRDSKSSDKSVCLFTDFDSQTNVSQSKDSDVYITDKCVLDMRSMDFKSNSAVAWSNKSDFACANAFNNSIIPEDTFFPSSDVPCDVKLVEKSFETDTNLNFQNLSVIGFRILLLKVAGFNLLMTLRLWSS | 53700
CD8SP-FMC63-vL-E-Coil-[hTCRb-KACIAH]-F-P2A-SP-FMC63-vH-K-coil-[hTCRa-CSDVP]-F-F2A-PAC (other, Polyprotein PRT 12434; also called 040617-B09) TCR beta: DIQMTQTTSSLSASLGDRVTISCRASQDISKYLNWYQQKPDGTVKLLIYHTSRLHSGVPSRFSGSGSGTDYSLTISNLEQEDIATYFCQQGNTLPYTFGGGTKLEITEVAALEREDLKNVFPPEVAVFEPSKAEIAHTQKATLVCLATGFYPDHVELSWWVNGKEVHSGVCTDPQPLKEQPALNDSRYCLSSRLRVSATFWQNPRNHFRCQVQFYGLSENDEWTQDRAKPVTQIVSAEAWGRADCGITSASYHQGVLSATILYEILLGKATLYAVLVSALVLMAMVKRKDSRG TCR alpha: EVKLQESGPGLVAPSQSLSVTCTVSGVSLPDYGVSWIRQPPRKGLEWLGVIWGSETTYYNSALKSRLTIIKDNSKSQVFLKMNSLQTDDTAIYYCAKHYYYGGSYAMDYWGQGTSVTVSSRVAALKEIQNPDPAVYQLRDSKSSDKSVCLFTDFDSQTNVSQSKDSDVYITDKCVLDMRSMDFKSNSAVAWSNKSDFACANAFNNSIIPEDTFFPSSDVPCDVKLVEKSFETDTNLNFQNLSVIGFRILLLKVAGFNLLMTLRLWSS | 35700
CD8SP-FMC63-vL-Myc2-[hTCRb-R18A22]-F-P2A-SP-FMC63-vH-Myc4-[hTCRa-SD]-F-F2A-PAC (other, Polyprotein PRT 12440; also called 112116-S08) TCR beta: DIQMTQTTSSLSASLGDRVTISCRASQDISKYLNWYQQKPDGTVKLLIYHTSRLHSGVPSRFSGSGSGTDYSLTISNLEQEDIATYFCQQGNTLPYTFGGGTKLEITEQKLISEEDLGSGEDLKNVFPPEVAVFEPSRAEIAHTQKATLVCLATGFYPDHVELSWWVNGKEVHSGVSTDPQPLKEQPALNDSRYCLSSRLRVSATFWQNPRNHFRCQVQFYGLSENDEWTQDRAKPVTQIVSAEAWGRADCGFTSESYQQGVLSATILYEILLGKATLYAVLVSALVLMAMVKRKDSRG TCR alpha: EVKLQESGPGLVAPSQSLSVTCTVSGVSLPDYGVSWIRQPPRKGLEWLGVIWGSETTYYNSALKSRLTIIKDNSKSQVFLKMNSLQTDDTAIYYCAKHYYYGGSYAMDYWGQGTSVTVSSEQKLISEEDLGSGIQNPDPAVYQLRDSKSSDKSVCLFTDFDSQTNVSQSKDSDVYITDKTVLDMRSMDFKSNSAVAWSNKSDFACANAFNNSIIPEDTFFPSSDSSCDVKLVEKSFETDTNLNFQNLSVIGFRILLLKVAGFNLLMTLRLWSS | 4480
CD8SP-FMC63-vL-[hTCRa-CSDVP]-F-F2A-SP-FMC63-vH-[hTCRb-KACIAH]-F-P2A-PAC (other, Polyprotein PRT 12469; also called 022217-F01) TCR alpha: DIQMTQTTSSLSASLGDRVTISCRASQDISKYLNWYQQKPDGTVKLLIYHTSRLHSGVPSRFSGSGSGTDYSLTISNLEQEDIATYFCQQGNTLPYTFGGGTKLEITIQNPDPAVYQLRDSKSSDKSVCLFTDFDSQTNVSQSKDSDVYITDKCVLDMRSMDFKSNSAVAWSNKSDFACANAFNNSIIPEDTFFPSSDVPCDVKLVEKSFETDTNLNFQNLSVIGFRILLLKVAGFNLLMTLRLWSS TCR beta: EVKLQESGPGLVAPSQSLSVTCTVSGVSLPDYGVSWIRQPPRKGLEWLGVIWGSETTYYNSALKSRLTIIKDNSKSQVFLKMNSLQTDDTAIYYCAKHYYYGGSYAMDYWGQGTSVTVSSEDLKNVFPPEVAVFEPSKAEIAHTQKATLVCLATGFYPDHVELSWWVNGKEVHSGVCTDPQPLKEQPALNDSRYCLSSRLRVSATFWQNPRNHFRCQVQFYGLSENDEWTQDRAKPVTQIVSAEAWGRADCGITSASYHQGVLSATILYEILLGKATLYAVLVSALVLMAMVKRKDSRG | 21300
CD8SP-FMC63-vL-EAAAK-[hTCRb-KACIAH]-F-P2A-SP-FMC63-vH-EAAAK-v2-[hTCRa-CSDVP]-F-F2A-PAC (other, Polyprotein PRT 12435; also called 040617-C09) TCR beta: DIQMTQTTSSLSASLGDRVTISCRASQDISKYLNWYQQKPDGTVKLLIYHTSRLHSGVPSRFSGSGSGTDYSLTISNLEQEDIATYFCQQGNTLPYTFGGGTKLEITEAAAKEDLKNVFPPEVAVFEPSKAEIAHTQKATLVCLATGFYPDHVELSWWVNGKEVHSGVCTDPQPLKEQPALNDSRYCLSSRLRVSATFWQNPRNHFRCQVQFYGLSENDEWTQDRAKPVTQIVSAEAWGRADCGITSASYHQGVLSATILYEILLGKATLYAVLVSALVLMAMVKRKDSRG TCR alpha: EVKLQESGPGLVAPSQSLSVTCTVSGVSLPDYGVSWIRQPPRKGLEWLGVIWGSETTYYNSALKSRLTIIKDNSKSQVFLKMNSLQTDDTAIYYCAKHYYYGGSYAMDYWGQGTSVTVSSEAAAKIQNPDPAVYQLRDSKSSDKSVCLFTDFDSQTNVSQSKDSDVYITDKCVLDMRSMDFKSNSAVAWSNKSDFACANAFNNSIIPEDTFFPSSDVPCDVKLVEKSFETDTNLNFQNLSVIGFRILLLKVAGFNLLMTLRLWSS | 68500
CD8SP-FMC63-vL-GSG-hTCRb-RAC-F-P2A-SP-FMC63-vH-Myc-[hTCRa-CSDVP]-F-F2A-PAC (other, Polyprotein PRT 12447; also called 121516-W05) TCR beta: DIQMTQTTSSLSASLGDRVTISCRASQDISKYLNWYQQKPDGTVKLLIYHTSRLHSGVPSRFSGSGSGTDYSLTISNLEQEDIATYFCQQGNTLPYTFGGGTKLEITGSGEDLKNVFPPEVAVFEPSRAEIAHTQKATLVCLATGFYPDHVELSWWVNGKEVHSGVCTDPQPLKEQPALNDSRYCLSSRLRVSATFWQNPRNHFRCQVQFYGLSENDEWTQDRAKPVTQIVSAEAWGRADCGFTSESYQQGVLSATILYEILLGKATLYAVLVSALVLMAMVKRKDSRG TCR alpha: EVKLQESGPGLVAPSQSLSVTCTVSGVSLPDYGVSWIRQPPRKGLEWLGVIWGSETTYYNSALKSRLTIIKDNSKSQVFLKMNSLQTDDTAIYYCAKHYYYGGSYAMDYWGQGTSVTVSSEQKLISEEDGSGIQNPDPAVYQLRDSKSSDKSVCLFTDFDSQTNVSQSKDSDVYITDKCVLDMRSMDFKSNSAVAWSNKSDFACANAFNNSIIPEDTFFPSSDVPCDVKLVEKSFETDTNLNFQNLSVIGFRILLLKVAGFNLLMTLRLWSS | 17200
CD8SP-FMC63-vL-[hTCRb-RC]-F-P2A-SP-FMC63-vH-[hTCRa-CSDVP]-F-F2A-PAC (other, Polyprotein PRT 12445; also called 121516-U07) TCR beta: DIQMTQTTSSLSASLGDRVTISCRASQDISKYLNWYQQKPDGTVKLLIYHTSRLHSGVPSRFSGSGSGTDYSLTISNLEQEDIATYFCQQGNTLPYTFGGGTKLEITEDLKNVFPPEVAVFEPSRAEISHTQKATLVCLATGFYPDHVELSWWVNGKEVHSGVCTDPQPLKEQPALNDSRYCLSSRLRVSATFWQNPRNHFRCQVQFYGLSENDEWTQDRAKPVTQIVSAEAWGRADCGFTSESYQQGVLSATILYEILLGKATLYAVLVSALVLMAMVKRKDSRG TCR alpha: EVKLQESGPGLVAPSQSLSVTCTVSGVSLPDYGVSWIRQPPRKGLEWLGVIWGSETTYYNSALKSRLTIIKDNSKSQVFLKMNSLQTDDTAIYYCAKHYYYGGSYAMDYWGQGTSVTVSSIQNPDPAVYQLRDSKSSDKSVCLFTDFDSQTNVSQSKDSDVYITDKCVLDMRSMDFKSNSAVAWSNKSDFACANAFNNSIIPEDTFFPSSDVPCDVKLVEKSFETDTNLNFQNLSVIGFRILLLKVAGFNLLMTLRLWSS | 12600
CD8SP-FMC63-vL-[hTCRb-KACIAH]-F-P2A-SP-FMC63-vH-[hTCRa-CSDVP]-F-F2A-PAC (other, Polyprotein PRT 12468; also called 022217-E01) TCR beta: DIQMTQTTSSLSASLGDRVTISCRASQDISKYLNWYQQKPDGTVKLLIYHTSRLHSGVPSRFSGSGSGTDYSLTISNLEQEDIATYFCQQGNTLPYTFGGGTKLEITEDLKNVFPPEVAVFEPSKAEIAHTQKATLVCLATGFYPDHVELSWWVNGKEVHSGVCTDPQPLKEQPALNDSRYCLSSRLRVSATFWQNPRNHFRCQVQFYGLSENDEWTQDRAKPVTQIVSAEAWGRADCGITSASYHQGVLSATILYEILLGKATLYAVLVSALVLMAMVKRKDSRG TCR alpha: EVKLQESGPGLVAPSQSLSVTCTVSGVSLPDYGVSWIRQPPRKGLEWLGVIWGSETTYYNSALKSRLTIIKDNSKSQVFLKMNSLQTDDTAIYYCAKHYYYGGSYAMDYWGQGTSVTVSSIQNPDPAVYQLRDSKSSDKSVCLFTDFDSQTNVSQSKDSDVYITDKCVLDMRSMDFKSNSAVAWSNKSDFACANAFNNSIIPEDTFFPSSDVPCDVKLVEKSFETDTNLNFQNLSVIGFRILLLKVAGFNLLMTLRLWSS | 9760
